Measured values published in patent US20210347848A1 (ALX ONCOLOGY, published 2021).
Read-outs that look alike come from different tables or passages of the source.

T1: mouse CD47 (mouse, UniProt Q61735 19-140, limits assumed)
T1 construct: Soluble analyte in SPR; construct not described
T1 sequence (looked up): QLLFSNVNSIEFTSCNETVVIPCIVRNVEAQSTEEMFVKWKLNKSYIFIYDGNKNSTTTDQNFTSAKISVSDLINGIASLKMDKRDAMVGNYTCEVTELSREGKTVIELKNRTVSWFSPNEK


Assays:
human CD47 [1] = target: T2, human CD47 (human, UniProt Q08722 19-135); experiment: SPR, decoy captured on biotinylated Protein A, CD47 as analyte, 25 C
T2 construct: Soluble analyte in SPR; also called hCD47
T2 sequence (Q08722 other isoform, or with tags, fused parts or gaps limits assumed): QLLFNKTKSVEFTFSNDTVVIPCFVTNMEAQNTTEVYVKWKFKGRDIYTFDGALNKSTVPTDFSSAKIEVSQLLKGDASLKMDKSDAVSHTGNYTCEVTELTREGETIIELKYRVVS
Protocol: (§1) The binding affinities each decoy polypeptides for CD47 from various species (e.g., human CD47, cynomolgus monkey CD47, and mouse CD47) were determined using indirect capture via biotinylated Protein A (via NLC chip). All experiments were performed at 25° C. using a Surface Plasmon Resonance (SPR)-based ProteOn XPR36 biosensor (BioRad, Inc., Hercules, Calif.). The running buffer was PBS at pH 7.4 with 0.01% Tween-20 (PBST+). All analytes were used at their nominal concentrations as determined by A₂₈₀ absorbance and using their molar calculated extinction coefficients.
(§2) As a first step, 15 μg/mL biotinylated protein A (Thermofisher) was injected at 30 μL/min for 120 seconds over the NLC chip to obtain an immobilization response of about 1000-1200 RUs. Next, decoy polypeptides (about 100-160 nM) were injected for 80 seconds at 30 μL/min. The CD47 analytes (from human, cynomolgus monkey, and mouse) were subsequently injected in a “one-shot” kinetic mode at nominal concentrations of 100 nM, 33 nM, 11 nM, 3.7 nM, 1.2 nM, and 0 nM. Association times were monitored for 60 seconds at 25 μL/min, and dissociation times were monitored for 500 seconds. The surfaces were regenerated with a 2:1 v/v blend of Pierce IgG elution buffer/4M NaCl. Biosensor data were double-referenced by subtracting the interspot data (containing no immobilized protein) from the reaction spot data (immobilized protein) and then subtracting the response of a buffer “blank” analyte injection from that of an analyte injection. Double-referenced data were fit globally to a simple Langmuir model and the KD value was calculated from the ratio of the apparent kinetic rate constants (KD=kd/kₐ).

human CD47 [2] = target: T2, human CD47; experiment: SPR; ratio against decoy polypeptide R (wild type SIRPγ D1 domain)
Protocol: as §1, §2

human CD47 [3] = target: T2, human CD47; experiment: SPR, decoy captured on biotinylated Protein A, CD47 as analyte, 25 C; remark: listed apart in the source
Protocol: as §1, §2

cynomolgus monkey CD47 = target: T3, cynomolgus monkey CD47 (cynomolgus monkey, UniProt A0A2K5X523 19-135); experiment: as above
T3 construct: Soluble analyte in SPR; construct not described; also called Cyno CD47
Protocol: as §1, §2

mouse CD47 = target: T1, mouse CD47; experiment: as above
Protocol: as §1, §2

Kd (human CD47 [1]) [nM] | Fold improvement in KD vs wild type (human CD47 [2]) [fold] | Kd (human CD47 [3]) [nM] | Kd (cynomolgus monkey CD47) [nM] | Kd (mouse CD47) [nM] | Binder
4.02 | 545 | – | – | – | Decoy polypeptide L (Fc fusion) EEELQLIQPEKLLLVTVGKTATLHCTITSLFPPGPIQWFRGVGPGRVLIYNQKDGPFPRVTTVSDGTKRNNMDFSIRISSITPADVGTYYCVKFRKGIPEDVEFKSGPGTEMALGAKPSDKTHTCPPCPAPEAAGAPSVFLFPPKPKDTLMISRTPEVTCVVVDVSHEDPEVKFNWYVDGVEVHNAKTKPREEQYASTYRVVSVLTVLHQDWLNGKEYKCKVSNKALPAPIEKTISKAKGQPREPQVYTLPPSREEMTKNQVSLTCLVKGFYPSDIAVEWESNGQPENNYKTTPPVLDSDGSFFLYSKLTVDKSRWQQGNVFSCSVMHEALHNHYTQKSLSLSPG
0.275 | 7960 | 0.398 | 0.33 | 1.3 | Decoy polypeptide J (Fc fusion) EEELQIIQPEKLLLVTVGKTATLHCTITSLLPVGPIQWFRGVGPGRELIYNQRDGPFPRVTTVSDGTKRNNMDFSIRISSITPADVGTYYCVKFRKGTPEDVEFKSGPGTEMALGAKPSDKTHTCPPCPAPEAAGAPSVFLFPPKPKDTLMISRTPEVTCVVVDVSHEDPEVKFNWYVDGVEVHNAKTKPREEQYASTYRVVSVLTVLHQDWLNGKEYKCKVSNKALPAPIEKTISKAKGQPREPQVYTLPPSREEMTKNQVSLTCLVKGFYPSDIAVEWESNGQPENNYKTTPPVLDSDGSFFLYSKLTVDKSRWQQGNVFSCSVMHEALHNHYTQKSLSLSPG
0.483 | 4530 | – | – | – | Decoy polypeptide H (Fc fusion) EEELQIIQPEKLLLVTVGKTATLHCTITSLFPVGPIQWFRGVGPGRELIYNAREGRFPRVTTVSDLTKRNNMDFSIRISSITPADVGTYYCVKFRKGSPEDVEFKSGPGTEMALGAKPSDKTHTCPPCPAPEAAGAPSVFLFPPKPKDTLMISRTPEVTCVVVDVSHEDPEVKFNWYVDGVEVHNAKTKPREEQYASTYRVVSVLTVLHQDWLNGKEYKCKVSNKALPAPIEKTISKAKGQPREPQVYTLPPSREEMTKNQVSLTCLVKGFYPSDIAVEWESNGQPENNYKTTPPVLDSDGSFFLYSKLTVDKSRWQQGNVFSCSVMHEALHNHYTQKSLSLSPG
0.35 | – | 0.288 | 0.334 | 146 | Decoy polypeptide P (Fc fusion) EDELQIIQPEKSVSVAAGESATLRCAITSLFPVGPIQWFRGAGAGRVLIYNQRQGPFPRVTTVSETTKRNNLDFSISISNITPADAGTYYCIKFRKGSPDDVEFKSGAGTELSVRAKPSDKTHTCPPCPAPEAAGAPSVFLFPPKPKDTLMISRTPEVTCVVVDVSHEDPEVKFNWYVDGVEVHNAKTKPREEQYASTYRVVSVLTVLHQDWLNGKEYKCKVSNKALPAPIEKTISKAKGQPREPQVYTLPPSREEMTKNQVSLTCLVKGFYPSDIAVEWESNGQPENNYKTTPPVLDSDGSFFLYSKLTVDKSRWQQGNVFSCSVMHEALHNHYTQKSLSLSPG
– | – | 0.193 | 0.224 | 7.82 | Decoy polypeptide U (Fc fusion, positive control) EEELQIIQPDKSVLVAAGETATLRCTITSLFPVGPIQWFRGAGPGRELIYNQREGPFPRVTTVSDTTKRNNMDFSIRIGAITPADAGTYYCVKFRKGSPDDVEFKSGAGTELSVRAKPSDKTHTCPPCPAPEAAGAPSVFLFPPKPKDTLMISRTPEVTCVVVDVSHEDPEVKFNWYVDGVEVHNAKTKPREEQYASTYRVVSVLTVLHQDWLNGKEYKCKVSNKALPAPIEKTISKAKGQPREPQVYTLPPSREEMTKNQVSLTCLVKGFYPSDIAVEWESNGQPENNYKTTPPVLDSDGSFFLYSKLTVDKSRWQQGNVFSCSVMHEALHNHYTQKSLSLSPG

The next lines start with the binder.

Binder | Kd (human CD47 [1]) [nM] | Fold improvement in KD vs wild type (human CD47 [2]) [fold] | Kd (human CD47 [3]) [nM] | Kd (cynomolgus monkey CD47) [nM] | Kd (mouse CD47) [nM]
Decoy polypeptide A (Fc fusion, expressed in Expi293 cells) EEELQIIQPEKLLLVTVGKTATLHCTITSLFPVGPVLWFRGVGPGRVLIYNQRQGPFPRVTTVSDTTKRNNMDFSIRISSITPADVGTYYCIKFRKGSPENVEFKSGPGTEMALGAKPSDKTHTCPPCPAPEAAGAPSVFLFPPKPKDTLMISRTPEVTCVVVDVSHEDPEVKFNWYVDGVEVHNAKTKPREEQYASTYRVVSVLTVLHQDWLNGKEYKCKVSNKALPAPIEKTISKAKGQPREPQVYTLPPSREEMTKNQVSLTCLVKGFYPSDIAVEWESNGQPENNYKTTPPVLDSDGSFFLYSKLTVDKSRWQQGNVFSCSVMHEALHNHYTQKSLSLSPG | 74.8 | – | – | – | –
Decoy polypeptide B (Fc fusion) EEELQIIQPEKLLLVTVGKTATLHCTITSLFPVGPIQWFRGVGPGRVLIYNQRDGPFPRVTTVSDGTKRNNMDFSIRISSITPADVGTYYCVKFRKGTPEDVEFKSGPGTEMALGAKPSDKTHTCPPCPAPEAAGAPSVFLFPPKPKDTLMISRTPEVTCVVVDVSHEDPEVKFNWYVDGVEVHNAKTKPREEQYASTYRVVSVLTVLHQDWLNGKEYKCKVSNKALPAPIEKTISKAKGQPREPQVYTLPPSREEMTKNQVSLTCLVKGFYPSDIAVEWESNGQPENNYKTTPPVLDSDGSFFLYSKLTVDKSRWQQGNVFSCSVMHEALHNHYTQKSLSLSPG | 0.32 | 6840 | – | – | –
Decoy polypeptide C (Fc fusion) EEELQIIQPEKLLLVTVGKTATLHCTITSLFPVGPIQWFRGVGPGRVLIYNQKDGPFPRVTTVSDGTKRNNMDFSIRISSITPADVGTYYCVKFRKGSPEDVEFKSGPGTEMALGAKPSDKTHTCPPCPAPEAAGAPSVFLFPPKPKDTLMISRTPEVTCVVVDVSHEDPEVKFNWYVDGVEVHNAKTKPREEQYASTYRVVSVLTVLHQDWLNGKEYKCKVSNKALPAPIEKTISKAKGQPREPQVYTLPPSREEMTKNQVSLTCLVKGFYPSDIAVEWESNGQPENNYKTTPPVLDSDGSFFLYSKLTVDKSRWQQGNVFSCSVMHEALHNHYTQKSLSLSPG | 0.243 | 9010 | 0.243 | 0.274 | 0.905
Decoy polypeptide F (Fc fusion) EEELQIIQPEKLLLVTVGKTATLHCTITSHFPVGPIQWFRGVGPGRVLIYNQKDGHFPRVTTVSDGTKRNNMDFSIRISSITPADVGTYYCVKFRKGSPEDVEFKSGPGTEMALGAKPSDKTHTCPPCPAPEAAGAPSVFLFPPKPKDTLMISRTPEVTCVVVDVSHEDPEVKFNWYVDGVEVHNAKTKPREEQYASTYRVVSVLTVLHQDWLNGKEYKCKVSNKALPAPIEKTISKAKGQPREPQVYTLPPSREEMTKNQVSLTCLVKGFYPSDIAVEWESNGQPENNYKTTPPVLDSDGSFFLYSKLTVDKSRWQQGNVFSCSVMHEALHNHYTQKSLSLSPG | 0.881 | 2490 | – | – | –
Decoy polypeptide G (Fc fusion) EEELQIIQPEKLLLVTVGKTATLHCTITSLFPVGPVLWFRGVGPGRVLIYNQRQGPFPRVTTVSDTTKRNNMDFSIRISSITPADVGTYYCVKFRKGTPEDVEFKSGPGTEMALGAKPSDKTHTCPPCPAPEAAGAPSVFLFPPKPKDTLMISRTPEVTCVVVDVSHEDPEVKFNWYVDGVEVHNAKTKPREEQYASTYRVVSVLTVLHQDWLNGKEYKCKVSNKALPAPIEKTISKAKGQPREPQVYTLPPSREEMTKNQVSLTCLVKGFYPSDIAVEWESNGQPENNYKTTPPVLDSDGSFFLYSKLTVDKSRWQQGNVFSCSVMHEALHNHYTQKSLSLSPG | 1.56 | 1400 | – | – | –
Decoy polypeptide D (Fc fusion) EEELQIIQPEKLLLVTVGKTATLHCTITSLFPVGPIQWFRGVGPGRVLIYNQKDGHFPRVTTVSDGTKRNNMDFSIRISSITPADVGTYYCVKFRKGSPEDVEFKSGPGTEMALGAKPSDKTHTCPPCPAPEAAGAPSVFLFPPKPKDTLMISRTPEVTCVVVDVSHEDPEVKFNWYVDGVEVHNAKTKPREEQYASTYRVVSVLTVLHQDWLNGKEYKCKVSNKALPAPIEKTISKAKGQPREPQVYTLPPSREEMTKNQVSLTCLVKGFYPSDIAVEWESNGQPENNYKTTPPVLDSDGSFFLYSKLTVDKSRWQQGNVFSCSVMHEALHNHYTQKSLSLSPG | 1.8 | 1220 | – | – | –
Decoy polypeptide Q (Fc fusion) EEELQIIQPDKSISVAAGESATLHCTITSLFPVGPIQWFRGAGPGRVLIYNQRQGPFPRVTTVSDTTKRNNMDFSIRISNITPADAGTYYCIKFRKGSPDDVEFKSGAGTELSVRAKPSDKTHTCPPCPAPEAAGAPSVFLFPPKPKDTLMISRTPEVTCVVVDVSHEDPEVKFNWYVDGVEVHNAKTKPREEQYASTYRVVSVLTVLHQDWLNGKEYKCKVSNKALPAPIEKTISKAKGQPREPQVYTLPPSREEMTKNQVSLTCLVKGFYPSDIAVEWESNGQPENNYKTTPPVLDSDGSFFLYSKLTVDKSRWQQGNVFSCSVMHEALHNHYTQKSLSLSPG | 0.213 | – | 0.0785 | 0.106 | 24.1
